Laboratory results reported in the supplement of paper PMC10724198.
± gives the standard deviation of the averaged measurements.

system: Saccharomyces cerevisiae; assay: protein stability index of tFT-peptide fusion (C-terminal peptide) (PSI (0-1 scale)); higher = more stable (slower turnover); details: genetic background: wild type; temperature: 30 C
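Further: PSI is a weighted mean of sequencing reads over stability bins, variants kept only with over 10 reads, mCherry proximal and sfGFP distal, peptide attached via GGGS linker.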

Sequence | protein stability index
SRLPSPFPSPPL | 0.737 ± 0.019
YLPYRTCSWKYE | 0.56 ± 0.022
GGLGFVGGVRVQ | 0.6705 ± 0.00086
TGWLRLLHAASG | 0.656 ± 0.045
SLSQWTSPGLNI | 0.708 ± 0.091
RTWNSIESRKIK | 0.706 ± 0.074
LTCRGESYAGLI | 0.651 ± 0.014
PSVSPLFSSPPP | 0.719 ± 0.012
RGKSPPPSSPPL | 0.684 ± 0.024
WGFLCVALGRWV | 0.644 ± 0.038
GKYQQGFQKVTR | 0.668 ± 0.025
GLDNNKCTEKKI | 0.665 ± 0.13
RVGGGRDVRGGG | 0.723 ± 0.042
GRCFGGVVRGAL | 0.655 ± 0.051
LFLFPVCFTNDL | 0.661 ± 0.025
SFHRICTYVLRP | 0.634 ± 0.089
SSFGIVWKKDAI | 0.736 ± 0.053
PFPPSAHPPPPH | 0.795 ± 0.085
VVGSVQQSSDSC | 0.692 ± 0.07
NPLKAGFLVVTT | 0.6508 ± 0.0032
SLDQRPSLSFKR | 0.663 ± 0.015

Sequence | protein stability index
PRGVLSCPVFAP | 0.776 ± 0.029
PPPPPSPSASSP | 0.491 ± 0.11
PSPAPPSPPSPP | 0.679 ± 0.028
MQQWSTKSPGVI | 0.651 ± 0.027
EQENATDRRGRE | 0.644 ± 0.026
APEGGEAQVLPA | 0.6842 ± 0.0022
GGVGCLGVFSVG | 0.7 ± 0.013
MESGKILGCCGI | 0.684 ± 0.012
PSPQPTRPPGPL | 0.704 ± 0.039
SEGRMHGLFLLN | 0.544 ± 0.022
KVLGSNNMRRSS | 0.702 ± 0.018
PYWVPSKSSLSP | 0.742 ± 0.068
RGSPFTAWSVLR | 0.753 ± 0.019
QFTFPPGTSAPV | 0.66 ± 0.032
LRLTTNTGCTIS | 0.611 ± 0.023
PRPRRFPPPLLA | 0.5103 ± 0.0049
KNNKIKHIKVKN | 0.679 ± 0.017
GQKKGRGGEREE | 0.676 ± 0.03
GGFESRVVGGVG | 0.526 ± 0.034
ALPPGSRPLIPS | 0.628 ± 0.024
MTYSVWENVLTW | 0.733 ± 0.032

Sequence | protein stability index
YRLRAFLSMTQQ | 0.616 ± 0.01
KTLALSAQHPGS | 0.645 ± 0.012
RGALGVVWAGLD | 0.638 ± 0.021
GGVGVGRGVCVF | 0.6187 ± 0.0012
INKKKQRIRGKN | 0.69 ± 0.064
GGRVWGAVGAGP | 0.627 ± 0.082
PPPNPHAASTHH | 0.654 ± 0.0077
NELSPSQDLPSS | 0.671 ± 0.095
PPPGSPLPPPRA | 0.702 ± 0.036
PTCPAPLPPSSP | 0.699 ± 0.061
IKKKNRKERQKK | 0.678 ± 0.015
SYNYMSIVMYRL | 0.587 ± 0.0071
PPRSSLNPDLTQ | 0.695 ± 0.1
RDSLGGRSMHGW | 0.682 ± 0.029
GEYYKRKMNGSK | 0.718 ± 0.11
RWPPPPPELPPP | 0.655 ± 0.039
LPRSPPCCHVND | 0.628 ± 0.02
KKINKEINKEKM | 0.693 ± 0.022
LPILPQHQPTTD | 0.674 ± 0.014
HLLGYSLRREFL | 0.67 ± 0.054
SNCARGNREFYW | 0.733 ± 0.058

Sequence | protein stability index
PALPPPPPSPPL | 0.676 ± 0.15
NPWTHVPGRQNH | 0.731 ± 0.054
VDSCASVGQGGL | 0.702 ± 0.044
CAITAPINRSWN | 0.702 ± 0.009
SDLGLHGRVPST | 0.6671 ± 0.0014
YILPTPKAFRSF | 0.738 ± 0.17
GVCSRVFLGRVE | 0.6836 ± 0.0065
YQEIIKRQTGNK | 0.745 ± 0.012
LALTFRLQAPLA | 0.695 ± 0.017
SLSDGGPSCPGV | 0.677 ± 0.032
GSNRLYRGVTIT | 0.627 ± 0.0082
RSRRPALVLSGN | 0.729 ± 0.011
DRTDTNVKWRKK | 0.696 ± 0.0077
TFALAPLPPLPS | 0.68 ± 0.032
LGGTRRVGLALV | 0.685 ± 0.057
SPPPPGPLPPPS | 0.718 ± 0.038
GGGGGLVVFGWK | 0.687 ± 0.007
PPLSLLPSSSPH | 0.664 ± 0.0081
